Results on one molecule are retold here after article PMC11487180, “PAK6 rescues pathogenic LRRK2-mediated ciliogenesis and centrosomal cohesion defects in a mutation-specific manner” (Cell Death & Disease, 2024).

The assay has as its target T1, AK7 (human, UniProt Q96M32 1-723).
T1 construct: AK7, human, recombinant protein on the HuProt array; source: bought: HuProt Human Proteome Microarray v4.0, Cambridge Protein Arrays (recombinant protein spotted on the array)
In words: peptide or protein array; HuProt Human Proteome Microarray v4.0 (GST proteins spotted) incubated with recombinant PAK6 in 2% BSA, PBS, 0.05% Tween20 for 2 h at RT; detected with anti-PAK6 and fluorophore conjugated secondary antibody; hits by Z score > 2.5. The conditions noted are these: both partners purified.

T1 sequence (Q96M32 whole entry): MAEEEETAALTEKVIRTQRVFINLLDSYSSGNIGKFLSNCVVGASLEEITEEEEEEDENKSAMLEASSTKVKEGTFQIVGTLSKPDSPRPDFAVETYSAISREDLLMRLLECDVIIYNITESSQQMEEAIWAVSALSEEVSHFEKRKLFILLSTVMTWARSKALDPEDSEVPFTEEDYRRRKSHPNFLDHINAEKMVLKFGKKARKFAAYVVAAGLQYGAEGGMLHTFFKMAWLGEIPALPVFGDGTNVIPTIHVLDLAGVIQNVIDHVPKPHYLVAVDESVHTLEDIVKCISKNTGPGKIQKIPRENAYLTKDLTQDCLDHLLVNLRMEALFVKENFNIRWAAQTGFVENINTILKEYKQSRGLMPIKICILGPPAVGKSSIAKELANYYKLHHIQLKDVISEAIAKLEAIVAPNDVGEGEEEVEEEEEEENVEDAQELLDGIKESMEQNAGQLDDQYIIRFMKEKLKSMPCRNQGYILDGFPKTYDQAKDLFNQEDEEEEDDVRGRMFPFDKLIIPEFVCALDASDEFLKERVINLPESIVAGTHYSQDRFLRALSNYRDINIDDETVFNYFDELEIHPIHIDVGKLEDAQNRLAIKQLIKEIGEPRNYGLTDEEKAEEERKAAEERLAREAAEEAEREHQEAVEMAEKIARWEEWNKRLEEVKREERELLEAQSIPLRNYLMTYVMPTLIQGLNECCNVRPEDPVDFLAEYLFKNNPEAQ

B1: Recombinant full-length human PAK6 (ThermoFisher, #PR5307A) (enzyme, UniProt Q9NQU5 1-681, looked up)
chain: MFRKKKKKRPEISAPQNFQHRVHTSFDPKEGKFVGLPPQWQNILDTLRRPKPVVDPSRITRVQLQPMKTVVRGSAMPVDGYISGLLNDIQKLSVISSNTLRGRSPTSRRRAQSLGLLGDEHWATDPDMYLQSPQSERTDPHGLYLSCNGGTPAGHKQMPWPEPQSPRVLPNGLAAKAQSLGPAEFQGASQRCLQLGACLQSSPPGASPPTGTNRHGMKAAKHGSEEARPQSCLVGSATGRPGGEGSPSPKTRESSLKRRLFRSMFLSTAATAPPSSSKPGPPPQSKPNSSFRPPQKDNPPSLVAKAQSLPSDQPVGTFSPLTTSDTSSPQKSLRTAPATGQLPGRSSPAGSPRTWHAQISTSNLYLPQDPTVAKGALAGEDTGVVTHEQFKAALRMVVDQGDPRLLLDSYVKIGEGSTGIVCLAREKHSGRQVAVKMMDLRKQQRRELLFNEVVIMRDYQHFNVVEMYKSYLVGEELWVLMEFLQGGALTDIVSQVRLNEEQIATVCEAVLQALAYLHAQGVIHRDIKSDSILLTLDGRVKLSDFGFCAQISKDVPKRKSLVGTPYWMAPEVISRSLYATEVDIWSLGIMVIEMVDGEPPYFSDSPVQAMKRLRDSPPPKLKNSHKVSPVLRDFLERMLVRDPQERATAQELLDHPFLLQTGLPECLVPLIQLYRKQTSTC
notes: source: bought: ThermoFisher, #PR5307A
As to B1, the binding result is “binds”.
